This passage reports stoichiometry N results from paper PMC6432644.

The stoichiometry N is a count of units in the complex or per binding partner.

The assay deals with Hsp90AA1-MC, HA-tagged. The assay is described as follows: native gel or EMSA. On the technique in general: Mobility shift assays separate free from complexed probe on a gel.

As to “Hsp90AA1-MC, HA-tagged (domain or fragment)”, the stoichiometry N worked out at 2.
